# Data published in the RNAGym collection of RNA variant scans (doi:10.7554/elife.80360).
# B1: HDV Ribozyme (parent)
# chain: GGCCGGCAUGGUCCCAGCCUCCUCGCUGGCGCCGGCUGGGCAACAUUCCGAGGGGACCGUCCCCUCGGUAAUGGCGAAUGGGACCCA
# Variants of: B1
# Experiment: self-cleavage, relative activity (ratio to wild type); higher = more cleavage; co-transcriptional
row,Variant,self-cleavage
1,GGCCGGCAUGGUUCCAGCCUCCUCGCUGGCGCCGGCUGGGCAACAUUCCGAGGGGACCGUCCCCUCGGUAAUGGCUAAUGGGACCCA,0.813
2,GGCCGGCAUGGUUCCAGCCUCCUCGCUGGCGCCGGCUGGGCAAGAUUCCGAGGGGACCGUCCCCUCGGUAAUGGCGAAUGGGACCCA,0.332
3,GGCCGGCAUGGUUCCAGCCUCCUCGCUGGCGCCGGCUGGGCAAAAUUCCGAGGGGACCGUCCCCUCGGUAAUGGCGAAUGGGACCCA,0.18
4,GGCCGGCAUGGUUCCAGCCUCCUCGCUGGCGCCGGCUGGGCAAUAUUCCGAGGGGACCGUCCCCUCGGUAAUGGCGAAUGGGACCCA,0.185
5,GGCCGGCAUGGUUCCAGCCUCCUCGCUGGCACCGGCUGGGCAACAUUCCGAGGGGACCGUCCCCUCGGUAAUGGCGAAUGGGACCCA,0.131
6,GGCCGGCAUGGUUCCAGCCUCCUCGCUGGCCCCGGCUGGGCAACAUUCCGAGGGGACCGUCCCCUCGGUAAUGGCGAAUGGGACCCA,0.198
7,GGCCGGCAUGGUUCCAGCCUCCUCGCUGGCGCCGGCUGGGCAACAUUCCAAGGGGACCGUCCCCUCGGUAAUGGCGAAUGGGACCCA,0.439
8,GGCCGGCAUGGUUCCAGCCUCCUCGCUGGCGCCGGCUGGGCAACAUUCCGAGGGGACCAUCCCCUCGGUAAUGGCGAAUGGGACCCA,0.763
9,GGCCGGCAUGGUUCCAGCCUCCUCGCUGGCGCCGGCUGGGCAACAUUCCGAGGGGACCGUCUCCUCGGUAAUGGCGAAUGGGACCCA,0.589
10,GGCCGGCAUGGUUCCAGCCUCCUCGCUGGCGCCGGCUGGGCAACAUUCCGAGGGGACCGUCACCUCGGUAAUGGCGAAUGGGACCCA,0.489
11,GGCCGGCAUGGUUCCAGCCUCCUCGCUGGCGCCGGCUGGGCAACAUUCCGAGGGGACCGUCCCCUCGGUAAUAGCGAAUGGGACCCA,0.128
12,GGCCGGCAUGGUUCCAGCCUCCUCGCUGGCGCCGGCUGGGCAACAUUCCGAGGGGACCGUCCCCUCGGUAAUUGCGAAUGGGACCCA,0.0875
13,GGCCGGCAUGGUUCCAGCCUCCUCGCUGGCGCCGGCUGGGCAACAUUCCGAGGGGACCGUGCCCUCGGUAAUGGCGAAUGGGACCCA,0.684
14,GGCCGGCAUGGUUCCAGCCUCCACGCUGGCGCCGGCUGGGCAACAUUCCGAGGGGACCGUCCCCUCGGUAAUGGCGAAUGGGACCCA,0.571
15,GGCCGGCAUGGUUCCAGCCUCCUCGCUGGCGCCGGCUGGACAACAUUCCGAGGGGACCGUCCCCUCGGUAAUGGCGAAUGGGACCCA,0.365
16,GGCCGGCAUGGUUCCAGCCUCCUCCCUGGCGCCGGCUGGGCAACAUUCCGAGGGGACCGUCCCCUCGGUAAUGGCGAAUGGGACCCA,0.0723

row,Variant,self-cleavage
1,GGCCGGCAUGGUUCCAGCCUCCUCUCUGGCGCCGGCUGGGCAACAUUCCGAGGGGACCGUCCCCUCGGUAAUGGCGAAUGGGACCCA,0
2,GGCCGGCAUGGUUCCAGCCUCCUCGCUGGCGCCGGCUGGGCAACAUUCCGAGGGGACCGUCCCCUCGGUAAUGGCGAAUGGGACGCA,0.332
3,GGCCGGCAUGGUUCCAGCCUCCUCGCUGGCGCCGGCUGGGCAACAUUCCGAGGGGACCGUCCCCUCGGUAAUGGCGAAUGGGACUCA,0.332
4,GGCCGGCAUGGUUCCAGCCUCCUCGCUGGCGCCGGCUGGGCAACAUUCCGAGGGGACCGUCCCCUCGGUAAUGGCGAAUGGGACACA,0.475
5,GGCCGGCAUGGUUCCAGCCUCCUCGCUGGCGCCGGCUGGGCAACAUUCUGAGGGGACCGUCCCCUCGGUAAUGGCGAAUGGGACCCA,0.256
6,GGCCGGCAUGGUUCCAGCCUCCUCGCUGGCGCCGGCUGGGCAACAUUCGGAGGGGACCGUCCCCUCGGUAAUGGCGAAUGGGACCCA,0.426
7,GGCCGGCAUGGUUCCAGCCUCCUCGCUGGCGCCGGUUGGGCAACAUUCCGAGGGGACCGUCCCCUCGGUAAUGGCGAAUGGGACCCA,0.256
8,GGCCGGCAUGGUUCCAGCCUCCUCGCUGGCGCCGGCUGGGCAACAUUCCGAGUGGACCGUCCCCUCGGUAAUGGCGAAUGGGACCCA,0.671
9,GGCCGGCAUGGUUCCAGCCUCCUCGCUGGCGCCGGCUGGGCAACAUUCCGAGGGGAGCGUCCCCUCGGUAAUGGCGAAUGGGACCCA,0.587
10,GGCCGGCAUGGUUCCAGCCUCCUCGCUGUCGCCGGCUGGGCAACAUUCCGAGGGGACCGUCCCCUCGGUAAUGGCGAAUGGGACCCA,0.0707
11,GGCCGGCAUGGUUCCAGCCUCCUCGCUGGCGCCGGCUGGGCAACAUUCCGAGGGGACCGUCCCCUCAGUAAUGGCGAAUGGGACCCA,0.572
12,GGCCGGCAUGGUUCCAGCCUCCUCGCUGGCGCCGGCUGGGCAACAUUCCGAGGGGACCGUCCCCUCCGUAAUGGCGAAUGGGACCCA,0.374
13,GGCCGGCAUGGUUCCAGCCUCCUCGCUGGCGCCGGCUGGGCAACAUUACGAGGGGACCGUCCCCUCGGUAAUGGCGAAUGGGACCCA,0.415
14,GGCCGGCAUGGUUCCAGCCUCCUCGCUGGCGCCGGCUGGGCAACAUUGCGAGGGGACCGUCCCCUCGGUAAUGGCGAAUGGGACCCA,0.499
15,GGCCGGCAUGGUUCCAGCCUCCUCGCCGGCGCCGGCUGGGCAACAUUCCGAGGGGACCGUCCCCUCGGUAAUGGCGAAUGGGACCCA,0.615
16,GGCCGGCAUGGUUCCAGCCUCCUCGCGGGCGCCGGCUGGGCAACAUUCCGAGGGGACCGUCCCCUCGGUAAUGGCGAAUGGGACCCA,1.06
